In the Human Domainome abundance scans (Beltran et al. 2025):
± gives the uncertainty stated by the source.

B1: Nanos homolog 2, residues 63 to 115; numbered along this chain, P60321 (parent)
chain: CNFCKHNGESRHVYSSHQLKTPDGVVVCPILRHYVCPVCGATGDQAHTLKYCP

Variants of: B1
Assay: abundance fitness (aPCA) (normalised: wild type 0, dead -1); higher = more abundant; growth selection in yeast, the domain comes from the species named
Conditions: Homo sapiens
Q45K showed an abundance fitness of 0.024 ± 0.11.
Work on C39T yielded an abundance fitness of -0.58 ± 0.08.
C39E gave an abundance fitness of -0.484 ± 0.12.
C39I gave an abundance fitness of -0.739 ± 0.39.
With C39G the abundance fitness was -0.731 ± 0.13.
For C39F, the abundance fitness was -0.497 ± 0.36.
For C39V, the abundance fitness was -0.702 ± 0.21.
With C39H the abundance fitness was -0.597 ± 0.22.
Variant C39Y has an abundance fitness of -0.781 ± 0.073.
In the case of C39R, the abundance fitness is reported as -0.696 ± 0.11.
Variant D23E has an abundance fitness of 0.076 ± 0.1.
With D23T the abundance fitness was -0.211 ± 0.13.
D23S gave an abundance fitness of -0.141 ± 0.084.
With D23C the abundance fitness was -0.189 ± 0.072.
Variant D23L has an abundance fitness of -0.252 ± 0.088.
D23R gave an abundance fitness of -0.128 ± 0.071.
C36I showed an abundance fitness of -0.976 ± 0.36.
C36N gave an abundance fitness of -0.675 ± 0.11.
With C36W the abundance fitness was -1.16 ± 0.43.
Variant C36A has an abundance fitness of -0.416 ± 0.1.
In the case of C36V, the abundance fitness is reported as -0.93 ± 0.098.
Variant C36T has an abundance fitness of -0.804 ± 0.29.
Variant C36G has an abundance fitness of -0.826 ± 0.086.
Work on S10Y yielded an abundance fitness of -0.328 ± 0.16.
Work on S10L yielded an abundance fitness of -0.194 ± 0.059.
Work on S10C yielded an abundance fitness of -0.321 ± 0.099.
Variant S10R has an abundance fitness of 0.003 ± 0.076.
With S10G the abundance fitness was 0.012 ± 0.065.
S10A showed an abundance fitness of -0.172 ± 0.1.
In the case of S10D, the abundance fitness is reported as -0.158 ± 0.14.
For S10V, the abundance fitness was -0.296 ± 0.083.
S10H gave an abundance fitness of 0.022 ± 0.08.
Work on Y14E yielded an abundance fitness of -0.089 ± 0.099.
With Y14A the abundance fitness was -0.165 ± 0.058.
Work on Y14H yielded an abundance fitness of -0.226 ± 0.14.
Y14Q gave an abundance fitness of 0.002 ± 0.11.
For Y14K, the abundance fitness was -0.133 ± 0.087.
In the case of Y14L, the abundance fitness is reported as -0.125 ± 0.071.
Y14W gave an abundance fitness of 0.208 ± 0.12.
For K5I, the abundance fitness was -0.054 ± 0.11.
K5S showed an abundance fitness of -0.313 ± 0.048.
K5G gave an abundance fitness of -0.699 ± 0.05.
Work on K5C yielded an abundance fitness of -0.249 ± 0.081.
With K5F the abundance fitness was -0.305 ± 0.11.
Work on K5P yielded an abundance fitness of -0.691 ± 0.048.
With K5M the abundance fitness was -0.165 ± 0.064.
Work on P37A yielded an abundance fitness of -0.231 ± 0.12.
With P37E the abundance fitness was 0.149 ± 0.11.
Variant P37C has an abundance fitness of -0.34 ± 0.12.
For P37F, the abundance fitness was -0.306 ± 0.12.
P37N gave an abundance fitness of 0.078 ± 0.087.
In the case of V38K, the abundance fitness is reported as 0.314 ± 0.089.
For V38S, the abundance fitness was 0.074 ± 0.084.
For V38A, the abundance fitness was 0.001 ± 0.1.
With V38E the abundance fitness was 0.287 ± 0.1.
In the case of V38C, the abundance fitness is reported as -0.099 ± 0.18.
In the case of C1G, the abundance fitness is reported as -0.554 ± 0.071.
C1L showed an abundance fitness of -0.745 ± 0.064.
A46S gave an abundance fitness of -0.241 ± 0.13.
With A46N the abundance fitness was -0.694 ± 0.4.
A46E gave an abundance fitness of -0.202 ± 0.082.
With A46K the abundance fitness was -0.349 ± 0.094.
With N2R the abundance fitness was -0.768 ± 0.1.
N2L showed an abundance fitness of -0.864 ± 0.061.
N2D gave an abundance fitness of -0.359 ± 0.13.
In the case of N2Y, the abundance fitness is reported as -0.254 ± 0.12.
N2G showed an abundance fitness of -0.484 ± 0.074.
With N2T the abundance fitness was -0.408 ± 0.087.
With N2E the abundance fitness was -0.663 ± 0.099.
For N2H, the abundance fitness was -0.647 ± 0.12.
N2V gave an abundance fitness of -0.819 ± 0.084.
With C4E the abundance fitness was -0.867 ± 0.13.
C4F gave an abundance fitness of -0.423 ± 0.12.
C4Y showed an abundance fitness of -0.874 ± 0.16.
C4T showed an abundance fitness of -0.879 ± 0.088.
For C4L, the abundance fitness was -1 ± 0.15.
Work on C4G yielded an abundance fitness of -0.802 ± 0.05.
For C4Q, the abundance fitness was -0.959 ± 0.21.
Variant C4M has an abundance fitness of -1 ± 0.22.
C4S showed an abundance fitness of -0.635 ± 0.06.
Work on C4A yielded an abundance fitness of -1.06 ± 0.11.
T48Q gave an abundance fitness of -0.031 ± 0.11.
Work on T48L yielded an abundance fitness of -0.224 ± 0.088.
T48M gave an abundance fitness of -0.12 ± 0.11.
T48A gave an abundance fitness of -0.136 ± 0.077.
T48G showed an abundance fitness of -0.226 ± 0.056.
T48E showed an abundance fitness of 0.091 ± 0.093.
With T48C the abundance fitness was -0.158 ± 0.097.
Work on T48I yielded an abundance fitness of -0.417 ± 0.22.
T48K showed an abundance fitness of 0.052 ± 0.12.
With G40I the abundance fitness was -0.394 ± 0.12.
Variant G40D has an abundance fitness of 0.343 ± 0.16.
G40Y showed an abundance fitness of -0.168 ± 0.15.
G40C gave an abundance fitness of -0.023 ± 0.073.
With G40P the abundance fitness was -0.595 ± 0.079.
With G40H the abundance fitness was 0.051 ± 0.16.
With G40M the abundance fitness was -0.107 ± 0.098.
In the case of K50V, the abundance fitness is reported as -0.22 ± 0.075.
K50A gave an abundance fitness of -0.284 ± 0.09.
K50M showed an abundance fitness of -0.063 ± 0.16.
With V35Y the abundance fitness was -0.086 ± 0.16.
With V35D the abundance fitness was -0.398 ± 0.1.
V35A gave an abundance fitness of -0.209 ± 0.085.
V35G showed an abundance fitness of -0.306 ± 0.071.
Work on V35L yielded an abundance fitness of -0.234 ± 0.097.
V35E showed an abundance fitness of -0.076 ± 0.078.
Variant E9Q has an abundance fitness of -0.116 ± 0.14.
Work on E9R yielded an abundance fitness of -0.125 ± 0.066.
Variant N7M has an abundance fitness of 0.173 ± 0.12.
For N7A, the abundance fitness was -0.213 ± 0.11.
N7W gave an abundance fitness of -0.47 ± 0.056.
For N7D, the abundance fitness was -0.513 ± 0.1.
Variant N7F has an abundance fitness of -0.241 ± 0.11.
With N7P the abundance fitness was -0.764 ± 0.093.
For N7I, the abundance fitness was -0.432 ± 0.17.
For N7Q, the abundance fitness was -0.263 ± 0.11.
Work on N7V yielded an abundance fitness of -0.364 ± 0.073.
R11P gave an abundance fitness of 0.172 ± 0.16.
For R11N, the abundance fitness was -0.131 ± 0.11.
Variant R11L has an abundance fitness of -0.049 ± 0.077.
Work on R11T yielded an abundance fitness of 0.08 ± 0.13.
R11D showed an abundance fitness of 0.167 ± 0.095.
Work on R11Q yielded an abundance fitness of -0.077 ± 0.18.
Work on R11G yielded an abundance fitness of -0.084 ± 0.067.
In the case of R11M, the abundance fitness is reported as -0.156 ± 0.12.
Work on G43N yielded an abundance fitness of -0.35 ± 0.23.
Work on G43T yielded an abundance fitness of -0.467 ± 0.079.
Variant G43Q has an abundance fitness of -0.176 ± 0.081.
Work on G43E yielded an abundance fitness of -0.187 ± 0.12.
G43L showed an abundance fitness of -0.494 ± 0.08.
For G43I, the abundance fitness was -0.744 ± 0.17.
G43A gave an abundance fitness of -0.138 ± 0.075.
G43C gave an abundance fitness of -0.421 ± 0.13.
For G43M, the abundance fitness was -0.414 ± 0.07.
In the case of V27K, the abundance fitness is reported as -0.132 ± 0.15.
Work on V27I yielded an abundance fitness of 0.053 ± 0.13.
For V27Q, the abundance fitness was -0.349 ± 0.28.
Variant V27H has an abundance fitness of 0.096 ± 0.14.
Work on V27R yielded an abundance fitness of 0.037 ± 0.094.
For V27D, the abundance fitness was -0.09 ± 0.13.
V27L gave an abundance fitness of -0.075 ± 0.11.
V27C showed an abundance fitness of -0.014 ± 0.091.
With V27W the abundance fitness was -0.144 ± 0.14.
For T21G, the abundance fitness was -0.004 ± 0.11.
Variant V26G has an abundance fitness of -0.441 ± 0.057.
V26F showed an abundance fitness of -0.284 ± 0.14.
Variant V26N has an abundance fitness of -0.456 ± 0.17.
Variant V26D has an abundance fitness of -0.509 ± 0.16.
For V26I, the abundance fitness was 0.033 ± 0.084.
With V26M the abundance fitness was -0.292 ± 0.2.
Variant V26Y has an abundance fitness of -0.427 ± 0.22.
Work on Y34H yielded an abundance fitness of 0.073 ± 0.12.
For Y34F, the abundance fitness was -0.011 ± 0.091.
Y34L gave an abundance fitness of 0.042 ± 0.068.
Work on Y34S yielded an abundance fitness of -0.097 ± 0.08.
Y34D showed an abundance fitness of -0.32 ± 0.093.
Y34M gave an abundance fitness of -0.092 ± 0.11.
For Y34T, the abundance fitness was 0.036 ± 0.1.
Y34P showed an abundance fitness of -0.6 ± 0.14.
With Y34W the abundance fitness was -0.066 ± 0.12.
In the case of C52W, the abundance fitness is reported as -0.824 ± 0.12.
C52F gave an abundance fitness of -0.789 ± 0.22.
With C52Y the abundance fitness was -0.497 ± 0.13.
With C52V the abundance fitness was -0.721 ± 0.082.
With C52M the abundance fitness was -0.788 ± 0.26.
Variant C52I has an abundance fitness of -0.731 ± 0.49.
Variant C52G has an abundance fitness of -0.732 ± 0.09.
